Tests used:
Settings in all cases: both partners purified
[1] = molecular target: wild-type transthyretin (wild-type TTR) (UniProt P02766 21-147); assay: native MS; equimolar 50 uM light wild-type and heavy S52P TTR in PBS 3 days at 4°C, then overnight with trypsin at 37°C; each tetramer species isolated and activated (tandem MS, Q-TOFII, 40 V)
[2] = molecular target: T1, S52P transthyretin (S52P TTR), full-length protomer (residues 1–127) (UniProt P02766 21-147, S52P); assay: as above
[3] = molecular target: T1, S52P transthyretin (S52P TTR), …; assay: native MS; TTR (S52P with or without limited trypsin proteolysis; wild type) in 200 mM ammonium acetate pH 7.4, nano-electrospray; 13+ charge state of the tetramer selected, acceleration voltage ramped 20 to 70 V (collision-induced dissociation)

B1: residue 49–127 fragment of S52P TTR (domain or fragment)
chain: not shown
notes: In the hybrid tetramer experiment the fragment comes from the 13C,15N-labelled S52P TTR; source: limited trypsin proteolysis of recombinant S52P TTR (cleavage at Lys48)
B1: binds [1]; binds [2].

B2: tryptic peptide CPLMVK (peptide)
peptide: CPLMVK
notes: tryptic peptide seen as adduct on the S52P TTR tetramer; source: trypsin digestion of recombinant S52P TTR
B2: binds [3].

— paper PMC4604687, “A novel mechano-enzymatic cleavage mechanism underlies transthyretin amyloidogenesis” (EMBO Molecular Medicine, 2015)
